What was measured:
human microglia [1] = test system: human microglia
human MDM [2] = test system: human MDM
HSP70 = experiment: Immunoblot of MDM lysates, HSP70; format: cell-based, human; details: cytokines 10 ng/ml each, 120 hrs, vs control
HSC70 = experiment: Immunoblot of MDM lysates, HSC70; format: cell-based, human; details: cytokines 10 ng/ml each, 120 hrs, vs control
IDE = experiment: Immunoblot of MDM lysates, IDE; format: cell-based, human; details: cytokines 10 ng/ml each, 120 hrs, vs control
human MDM [3] = experiment: Pulse-chase of fibrillar 125I-Aβ in MDM chased with recombinant cytokines; format: cell-based; details: cytokines at final 10 ng/ml, chase 120 hrs, vs control MDM
human microglia [4] = experiment: Pulse-chase of fibrillar 125I-Aβ in microglia chased with recombinant cytokines; format: cell-based; details: cytokines at final 10 ng/ml, chase 120 hrs, vs control

Question: How did the “extracellular TCA-insoluble fraction at saturation (% total count)” value (human microglia [1]) turn out when “Fibrillar Aβ40: iodinated synthetic Aβ40 peptide aggregated with stirring at 37°C for 3 days, precipitated fraction” was run?
Answer: The value was roughly 30%.

Question: And the “extracellular TCA-soluble fraction at saturation (% total count)” value (human microglia [1])?
Answer: The value was “approximately 10%”.

Question: And the “intracellular retention at saturation (% total count)” value (human microglia [1])?
Answer: The value was “approximately 60%”.

Question: What about the “extracellular TCA-soluble fraction (degraded form) at saturation (% total count)” value (human MDM [2]) of the same molecule?
Answer: The value was roughly 40%.

Question: What about the “intracellular retention at saturation (% total count)” value (human MDM [2]) of the same molecule?
Answer: The value was “approximately 50%”.

Question: “Fibrillar Aβ42: iodinated synthetic Aβ42 peptide aggregated with stirring at 37°C for 3 days, precipitated fraction” was tested. Which “intracellular retention at saturation (% total count)” value (human microglia [1]) did it give?
Answer: Its value is roughly 42%.

Question: And the “extracellular TCA-soluble fraction (degraded form) at saturation (% total count)” value (human MDM [2])?
Answer: Its value is roughly 40%.

Question: What does the source list for “IFN-γ: recombinant cytokine interferon-γ”?
Answer: reduction of HSP70 expression (band intensity / β-actin) (HSP70): no effect; reduction of HSC70 expression (band intensity / β-actin) (HSC70): no effect; reduction of IDE expression (band intensity / β-actin) (IDE): no effect

Question: Which “effect on intracellular retention of fibrillar Aβ40” value (from here on “effect … of fibrillar Aβ40”) (human MDM [3]) does the source give for “IL-4: recombinant cytokine interleukin-4” here?
Answer: The value was “significantly reduced”.

Question: What about the “effect on intracellular retention of fibrillar Aβ42” value (“effect … of fibrillar Aβ42” for short) (human MDM [3]) of the same molecule?
Answer: Its value is “suppressed”.

Question: What does the source list for IL-10: recombinant cytokine?
Answer: effect on intracellular retention of fibrillar Aβ40 (human MDM [3]): significantly reduced; effect on intracellular retention of fibrillar Aβ42 (human MDM [3]): suppressed

Question: With IL-13: recombinant cytokine as the molecule, how does the “effect … of fibrillar Aβ40” value (human MDM [3]) read?
Answer: Its value is “no effect”.

Question: Which “extracellular TCA-soluble fraction (degraded form) at saturation (% total count)” value (human MDM [2]) does the source give for “Oligomeric Aβ40: 125I-Aβ40 incubated in PBS at 4°C for 24hs, supernatant fraction” here?
Answer: Its value is roughly 75%.

Question: “Oligomeric Aβ42: 125I-Aβ42 incubated in PBS at 4°C for 24hs, supernatant fraction” was tested. Which “extracellular TCA-soluble fraction (degraded form) at saturation (% total count)” value (human MDM [2]) did it give?
Answer: The value was roughly 40%.

Question: Which “effect … of fibrillar Aβ40” value (human MDM [3]) does the source give for “TGF-β1: recombinant cytokine transforming growth factor-β1” here?
Answer: Its value is “significantly reduced”.

Question: With TNF-α as the molecule, how does the “reduction of HSP70 expression (band intensity / β-actin)” value (HSP70) read?
Answer: Its value is “no effect”.

Question: What about the “reduction of HSC70 expression (band intensity / β-actin)” value (HSC70) of the same molecule?
Answer: Its value is “no effect”.

Question: And the “reduction of IDE expression (band intensity / β-actin)” value (IDE)?
Answer: Its value is “no effect”.

B1: IFN-γ: recombinant cytokine interferon-γ (protein, UniProt P01579 24-161, looked up)
Interferon gamma: QDPYVKEAENLKKYFNAGHSDVADNGTLFLGILKNWKEESDRKIMQSQIVSFYFKLFKNFKDDQSIQKSVETIKEDMNVKFFNSNKKKRDDFEKLTNYSVTDLNVQRKAIHELIQVMAELSPAAKTGKRKRSQMLFRG
Question: For B1, which “effect … of fibrillar Aβ40” value (human MDM [3]) is on record?
Answer: Its value is “significantly enhanced”.

Question: And the “effect … of fibrillar Aβ42” value (human MDM [3])?
Answer: The value was “significantly enhanced”.

Question: What about the “effect … of fibrillar Aβ40” value (human microglia [4]) of the same molecule?
Answer: Its value is “significantly enhanced”.

Question: What about the “effect … of fibrillar Aβ42” value (human microglia [4]) of the same molecule?
Answer: The value was “enhanced”.

Reference: PMC2603577 (Journal of immunology (Baltimore, Md. : 1950), 2008)
